{"source": "patent US20240025971A1", "binders": {"B1": {"name": "AB-009108 (antibody, V domains shown)", "VH": "QVQLQESGPGLVKPSETLALTCTVSGDSIINNNFYWGWLRQPPGQGLEWIGSLFHTGSAYYNSSLKSRVRSSVDTARNQISLRLSSVTAADTAVYYCARVNIVSVPAPPGAIEGWFDPWGQGTRVTVSP", "VL": "SYELTQPPSVSVSLGQTARISCSGDALPTKYVHWYQQKAGQAPVVVIFRDTERPSEIPERFSGSSSGTTVTLTISGVQAEDEADYYCQSVDGSGFYVFGSGTKVTVL"}, "B2": {"name": "AB-009174 (antibody, V domains shown)", "VH": "QVQLQQWGAGLLKPSETLSLTCAVYGESFSGYYWNWIRQPPGKGLEWIGEIDQSGSTNYNPSLKSRVTISVDTSKNQFSLKLTSVTAADTAVYYCARVSGRMQLWLRAGYMDVWDKGTTVTVSS", "VL": "QSALTQPASVSGSPGQSITISCTGTSSDVGRYNYVSWYQQHPGKAPKLMIYEVSNRPSGVSNRFSGSKSGNTASLTISGLQAEDEADYYCSSYTTSSTRVFGGGTKLTVL"}, "B3": {"name": "AB-009202 (antibody, V domains shown)", "VH": "QVQLVESGGGVVQPGRSLRLSCAASGFTFSSYGMHWVRQAPGKGLEWVAVIWYDGSNKYYADSVKGRFTISRDNSKNTLYLQMNSLRAEDTAVYYCARDGGPEYYFDYWGQGTLVTVSS", "VL": "SYELTQPPSVSVSPGQTARITCSGDALPKQYAYWYQQKPGQAPVLVIYKDSERPSGIPERFSGSSSGTTVTLTISGVQAEDEADYYCQSADSSGTYNVVFGGGTKLTVL"}, "B4": {"name": "AB-009231 (antibody, V domains shown)", "VH": "EVQLVESGGGLVQPGGSLRLSCAASGFTFSSYWMSWVRQAPGKGLEWVANIKQDGSEKYYVDSVKGRFTISRDNAKNSLYLQMNSLRAEDTAVYYCARVSMRFLEWSFYYYYYMDVWGKGTTVTVSS", "VL": "SSELTQDPAVSVALGQTVRITCQGDSLRSYYASWYQQKPGQAPVLVIYGKNNRPSGIPDRFSGSSSGNTASLTITGAQAEDEADYYCNSRDSSGNHLGVVFGGGTKLTVL"}, "B5": {"name": "AB-009237 (antibody, V domains shown)", "VH": "QVQLLQSGAEVKKPGASVSVSCKASGFTFTSYYFHWVRQAPGQGLEWMGIVSPAGGSTNYAQKFQGRVTMTRDTSTSTVHMELRNVRYDDTAVFYCARSVYCSSPSCPHGMDVWGPGTMVTVSS", "VL": "DIQVTQSPSTLSASVGDRVTITCRASQSILTYLAWYQQKPGKAPNLLIYKASNLQSGVPSRFSGSGSGTEFTLTISSLQPDDFATYHCQQYKSYPFSFGQGTKLAIK"}, "B6": {"name": "AB-009244 (antibody, V domains shown)", "VH": "EVQLVESGGGLVQPGGSLRLSCAASGFAFNTYGINWVRQAPGKGLEWVSFISSRSTTIHYADSVRGRFTISRDNAKNSLYLQMNNLRDEDTAVYYCARDLLIWFGETGAFDIWGQGTMVTVSS", "VL": "EVVMTQSPATLSVSSGERVTLSCRASQSVSNNLAWYQQKPGQAPRLLIYGASTRATGFPARFSGSGSGTEFTLTISSLQSEDFAVYYCQQYNIWPPGTFGQGTKLEIK"}, "B7": {"name": "AB-009627 (antibody, V domains shown)", "VH": "QVQLQQWGAGLLKPSETLSLTCAVYGGSFSGYYWSWIRQPPGKGLEWIGEINHSGSTNYNPSLKSRVTISVDTSKNQFSLKLSSVTAADTAVFYCARGGYSSSWYGEKYWFDPWGQGTLVTVSS", "VL": "QSALTQPRSVSGSPGQSVTISCTGTSSDVGGYNYVSWYQQHPGKAPKLMIYDVSKRPSGVPDRFSGSKSGNTASLTISGLQAEDEADYYCCSYAGSPYVFGTGTKVTVL"}}, "molecular_target": "SARS-CoV-2 Spike (S) trimer (SARS-CoV-2), P0DTC2", "assay": "ELISA, S trimer coated, 1:50 dilution", "settings": "remark: other sources report otherwise", "data": [{"binder": "B1", "values": [{"measurement": "Optical Density (OD; 450 nm)", "value": 0.28, "unit": "OD450"}]}, {"binder": "B2", "values": [{"measurement": "Optical Density (OD; 450 nm)", "value": 0.154, "unit": "OD450"}]}, {"binder": "B3", "values": [{"measurement": "Optical Density (OD; 450 nm)", "value": 1.99, "unit": "OD450"}]}, {"binder": "B4", "values": [{"measurement": "Optical Density (OD; 450 nm)", "value": 0.46, "unit": "OD450"}]}, {"binder": "B5", "values": [{"measurement": "Optical Density (OD; 450 nm)", "value": 0.228, "unit": "OD450"}]}, {"binder": "B6", "values": [{"measurement": "Optical Density (OD; 450 nm)", "value": 0.239, "unit": "OD450"}]}, {"binder": "B7", "values": [{"measurement": "Optical Density (OD; 450 nm)", "value": 0.823, "unit": "OD450"}]}]}
